Measurements published in paper PMC10192527, “A metal ion-dependent mechanism of RAD51 nucleoprotein filament disassembly”.

Columns and labels:
RAD51 [1] = biological target: T1, RAD51 (Homo sapiens, UniProt Q06609 1-339); experiment: cryo-EM structure (3.8 A); Ca2+, ATP (pre-synaptic filament; two Ca2+ per ATP site); EMSA: 25 mM HEPES pH 7.5, 150 mM NaCl, 2 mM DTT, 5 mM CaCl2, 2 mM ATP or 0.5-10 mM ADP, 25 C 15 min; 0.5% agarose in 0.5x TB at 4 C; details: protein: recombinant; tags: none stated on the final protein; co-expressed with His6-MBP-BRCA2 BRC4 (pMBP4-RAD51); chain copies: 10; single strand
RAD51 [2] = biological target: T1, RAD51; experiment: cryo-EM structure; ATP, Ca2+ (post-synaptic filament; second metal ion present); EMSA: 25 mM HEPES pH 7.5, 150 mM NaCl, 2 mM DTT, 5 mM CaCl2, 2 mM ATP or 0.5-10 mM ADP, 25 C 15 min; 0.5% agarose in 0.5x TB at 4 C; details: protein: recombinant; tags: none stated on the final protein; co-expressed with His6-MBP-BRCA2 BRC4 (pMBP4-RAD51); chain copies: 16; blunt ends, internal 10-nt mismatched bubble

T1 sequence (Q06609 whole entry): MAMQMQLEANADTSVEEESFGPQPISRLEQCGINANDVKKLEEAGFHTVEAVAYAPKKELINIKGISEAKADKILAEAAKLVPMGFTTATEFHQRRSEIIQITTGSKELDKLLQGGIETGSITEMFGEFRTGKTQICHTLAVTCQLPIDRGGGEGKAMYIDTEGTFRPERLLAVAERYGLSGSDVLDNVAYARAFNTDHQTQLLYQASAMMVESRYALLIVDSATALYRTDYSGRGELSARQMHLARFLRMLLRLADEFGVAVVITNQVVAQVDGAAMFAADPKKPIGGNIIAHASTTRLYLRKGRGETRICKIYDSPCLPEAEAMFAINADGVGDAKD

B1: x60 ssDNA 60mer (ssDNA)
DNA: ATGGTGTGTGTAGGTTAATGTGAGGAGGAGAGGTGAAGAAGGAGGAGAGAAGAAGGAGGC
RAD51 [1]
  binding result: binds

B2: R51-14:R51-15 (post-synaptic filament DNA) (dsDNA)
DNA 1: TGGAGGTGCATCGAGCTCGCGACAAACCTTCTATGTTGAGCGTCAGTCGG
DNA 2: CCGACTGACGCTCAACATAGGTACCACACGGCGAGCTCGATGCACCTCCA
RAD51 [2]
  binding result: binds
